Legend:
Assay in all cases: PEPSCAN ELISA, looped peptide, antibody 10 µg/ml
[1] = molecular target: looped/cyclic peptide … (rabies virus strain ERA)
[2] = molecular target: looped/cyclic peptide … (rabies virus strain ERA); remark: listed apart in the source
[3] = molecular target: looped/cyclic peptide … (rabies virus strain ERA); remark: listed apart in the source
[4] = molecular target: looped/cyclic peptide … (rabies virus strain ERA); remark: listed apart in the source
[5] = molecular target: looped/cyclic peptide … (rabies virus strain ERA); remark: listed apart in the source
[6] = molecular target: looped/cyclic peptide … (rabies virus strain ERA); remark: listed apart in the source
[7] = molecular target: looped/cyclic peptide … (rabies virus strain ERA); remark: listed apart in the source
[8] = molecular target: looped/cyclic peptide … (rabies virus strain ERA); remark: listed apart in the source
[9] = molecular target: looped/cyclic peptide … (rabies virus strain ERA); remark: listed apart in the source
[10] = molecular target: looped/cyclic peptide … (rabies virus strain ERA); remark: listed apart in the source
[11] = molecular target: looped/cyclic peptide … (rabies virus strain ERA); remark: listed apart in the source
[12] = molecular target: looped/cyclic peptide … (rabies virus strain ERA); remark: listed apart in the source
[13] = molecular target: looped/cyclic peptide … (rabies virus strain ERA); remark: listed apart in the source
[14] = molecular target: looped/cyclic peptide … (rabies virus strain ERA); remark: listed apart in the source
[15] = molecular target: looped/cyclic peptide … (rabies virus strain ERA); remark: listed apart in the source
[16] = molecular target: looped/cyclic peptide … (rabies virus strain ERA); remark: listed apart in the source
[17] = molecular target: looped/cyclic peptide … (rabies virus strain ERA); remark: listed apart in the source
[18] = molecular target: looped/cyclic peptide … (rabies virus strain ERA); remark: listed apart in the source
[19] = molecular target: looped/cyclic peptide … (rabies virus strain ERA); remark: listed apart in the source
[20] = molecular target: looped/cyclic peptide … (rabies virus strain ERA); remark: listed apart in the source
[21] = molecular target: looped/cyclic peptide … (rabies virus strain ERA); remark: listed apart in the source
[22] = molecular target: looped/cyclic peptide … (rabies virus strain ERA); remark: listed apart in the source
[23] = molecular target: looped/cyclic peptide … (rabies virus strain ERA); remark: listed apart in the source
[24] = molecular target: looped/cyclic peptide … (rabies virus strain ERA); remark: listed apart in the source
[25] = molecular target: looped/cyclic peptide … (rabies virus strain ERA); remark: listed apart in the source
[26] = molecular target: looped/cyclic peptide … (rabies virus strain ERA); remark: listed apart in the source
[27] = molecular target: looped/cyclic peptide … (rabies virus strain ERA); remark: listed apart in the source
[28] = molecular target: looped/cyclic peptide DIHHLSCPNNLVVED (rabies virus strain ERA)
[29] = molecular target: looped/cyclic peptide … (rabies virus strain ERA); remark: listed apart in the source
[30] = molecular target: looped/cyclic peptide … (rabies virus strain ERA); remark: listed apart in the source
[31] = molecular target: looped/cyclic peptide … (rabies virus strain ERA); remark: listed apart in the source
[32] = molecular target: looped/cyclic peptide … (rabies virus strain ERA); remark: listed apart in the source
[33] = molecular target: looped/cyclic peptide … (rabies virus strain ERA); remark: listed apart in the source
[34] = molecular target: looped/cyclic peptide … (rabies virus strain ERA); remark: listed apart in the source
[35] = molecular target: looped/cyclic peptide … (rabies virus strain ERA); remark: listed apart in the source
[36] = molecular target: looped/cyclic peptide … (rabies virus strain ERA); remark: listed apart in the source
[37] = molecular target: looped/cyclic peptide … (rabies virus strain ERA); remark: listed apart in the source
[38] = molecular target: looped/cyclic peptide … (rabies virus strain ERA); remark: listed apart in the source
[39] = molecular target: looped/cyclic peptide … (rabies virus strain ERA); remark: listed apart in the source
[40] = molecular target: looped/cyclic peptide … (rabies virus strain ERA); remark: listed apart in the source
[41] = molecular target: looped/cyclic peptide … (rabies virus strain ERA); remark: listed apart in the source
[42] = molecular target: looped/cyclic peptide … (rabies virus strain ERA); remark: listed apart in the source
[43] = molecular target: looped/cyclic peptide … (rabies virus strain ERA); remark: listed apart in the source
[44] = molecular target: looped/cyclic peptide … (rabies virus strain ERA); remark: listed apart in the source
[45] = molecular target: looped/cyclic peptide … (rabies virus strain ERA); remark: listed apart in the source
[46] = molecular target: looped/cyclic peptide … (rabies virus strain ERA); remark: listed apart in the source
[47] = molecular target: looped/cyclic peptide … (rabies virus strain ERA); remark: listed apart in the source
[48] = molecular target: looped/cyclic peptide … (rabies virus strain ERA); remark: listed apart in the source
[49] = molecular target: looped/cyclic peptide … (rabies virus strain ERA); remark: listed apart in the source
[50] = molecular target: looped/cyclic peptide … (rabies virus strain ERA); remark: listed apart in the source
[51] = molecular target: looped/cyclic peptide … (rabies virus strain ERA); remark: listed apart in the source
[52] = molecular target: looped/cyclic peptide … (rabies virus strain ERA); remark: listed apart in the source
[53] = molecular target: looped/cyclic peptide … (rabies virus strain ERA); remark: listed apart in the source
[54] = molecular target: looped/cyclic peptide … (rabies virus strain ERA); remark: listed apart in the source
[55] = molecular target: looped/cyclic peptide … (rabies virus strain ERA); remark: listed apart in the source
[56] = molecular target: looped/cyclic peptide … (rabies virus strain ERA); remark: listed apart in the source
[57] = molecular target: looped/cyclic peptide … (rabies virus strain ERA); remark: listed apart in the source
[58] = molecular target: looped/cyclic peptide … (rabies virus strain ERA); remark: listed apart in the source
[59] = molecular target: looped/cyclic peptide … (rabies virus strain ERA); remark: listed apart in the source
[60] = molecular target: looped/cyclic peptide … (rabies virus strain ERA); remark: listed apart in the source
[61] = molecular target: looped/cyclic peptide … (rabies virus strain ERA); remark: listed apart in the source

B1: human monoclonal antibody CRJA (antibody, V domains shown)
VH: EVQLLESGGGLVQPGGSLRLSCAASGFTFSNYAMSWVRQAPGKGLEWVSAISASGHSTYLADSVKGRFTISRDNSKNTLYLQMNSLRAEDTAVYYCAKDREVTMIVVLNGGFDYWGQGTRVTVSS
VL: EIVLTQSPATLSLSPGERATLACRASQTASRYLAWYQQKPGQAPRLLIYDTSNRATGIPARFSGSGSGTDFTLSISSLEPEDFAVYYCQQRFNWPWTFGQGTKVEFK
With B1 the OD value [1] was 55 OD, the OD value [2] was 86 OD and the OD value [3] was 88 OD. For the same binder, the OD value [4] was 66 OD, the OD value [5] was 136 OD and the OD value [6] was 74 OD. For the same binder, the OD value [7] was 72 OD, the OD value [8] was 93 OD and the OD value [9] was 86 OD. The OD value [10] was 83 OD, the OD value [11] was 72 OD and the OD value [12] was 78 OD. It also gave an OD value [13] of 58 OD, an OD value [14] of 113 OD and an OD value [15] of 78 OD. For the same binder, the OD value [16] was 46 OD, the OD value [17] was 55 OD and the OD value [18] was 58 OD. For the same binder, the OD value [19] was 92 OD, the OD value [20] was 96 OD and the OD value [21] was 100 OD. For the same binder, the OD value [22] was 65 OD, the OD value [23] was 92 OD and the OD value [24] was 54 OD. It also gave an OD value [25] of 96 OD, an OD value [26] of 112 OD and an OD value [27] of 90 OD. For the same binder, the OD value [28] was 62 OD, the OD value [29] was 45 OD and the OD value [30] was 87 OD. It also gave an OD value [31] of 104 OD, an OD value [32] of 69 OD and an OD value [33] of 89 OD. For the same binder, the OD value [34] was 100 OD, the OD value [35] was 72 OD and the OD value [36] was 51 OD. It also gave an OD value [37] of 118 OD, an OD value [38] of 117 OD and an OD value [39] of 58 OD. For the same binder, the OD value [40] was 92 OD, the OD value [41] was 90 OD and the OD value [42] was 83 OD. For the same binder, the OD value [43] was 83 OD, the OD value [44] was 57 OD and the OD value [45] was 38 OD. It also gave an OD value [46] of 98 OD, an OD value [47] of 82 OD and an OD value [48] of 78 OD. The OD value [49] was 84 OD, the OD value [50] was 89 OD and the OD value [51] was 45 OD. It also gave an OD value [52] of 86 OD, an OD value [53] of 113 OD and an OD value [54] of 41 OD. It also gave an OD value [55] of 137 OD, an OD value [56] of 82 OD and an OD value [57] of 96 OD. The OD value [58] was 96 OD, the OD value [59] was 105 OD and the OD value [60] was 38 OD. The OD value [61] was 54 OD.
